Experimental data taken from patent US20210188980A1 (SHANGHAI EPIMAB BIOTHERAPEUTICS, published 2021).

Experiments:
human PD-1-His protein [1] = target: T1, human PD-1-His protein (human, UniProt Q15116 25-167, limits assumed); experiment: SPR Biacore
T1 construct: also called huPD-1; not shown: His tag

[2] = target: T2, recombinant human LAG-3-his protein (Novoprotein) (human, UniProt P18627 23-450); experiment: BLI Octet, FIT-Ig captured, antigen analyte
T2 construct: Bought; also called huLAG-3; not shown: His tag
T2 sequence (looked up): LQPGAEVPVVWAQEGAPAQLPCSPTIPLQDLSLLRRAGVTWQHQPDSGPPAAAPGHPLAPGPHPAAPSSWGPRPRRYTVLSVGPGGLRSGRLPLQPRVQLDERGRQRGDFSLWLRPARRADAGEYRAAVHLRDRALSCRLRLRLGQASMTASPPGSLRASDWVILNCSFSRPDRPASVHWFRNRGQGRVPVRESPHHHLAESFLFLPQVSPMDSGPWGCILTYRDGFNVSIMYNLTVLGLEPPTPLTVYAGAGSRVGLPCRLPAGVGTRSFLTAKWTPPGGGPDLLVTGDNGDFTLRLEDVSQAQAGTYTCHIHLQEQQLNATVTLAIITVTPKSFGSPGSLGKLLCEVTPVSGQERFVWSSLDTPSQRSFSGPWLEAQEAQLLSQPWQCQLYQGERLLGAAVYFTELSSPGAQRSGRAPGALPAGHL

human PD-1-His protein [3] = target: T1, human PD-1-His protein; experiment: BLI Octet, FIT-Ig captured, antigen analyte
[4] = target: T3, human PD-1 expressed on cells (human, UniProt Q15116 25-288); experiment: cell RBA FACS; competitor PD-L2/Fc
T3 construct: whole, on cells; also called CHO-K1/huPD-1; CHO-K1-hPD-1 cells
T3 sequence (Q15116 25-288): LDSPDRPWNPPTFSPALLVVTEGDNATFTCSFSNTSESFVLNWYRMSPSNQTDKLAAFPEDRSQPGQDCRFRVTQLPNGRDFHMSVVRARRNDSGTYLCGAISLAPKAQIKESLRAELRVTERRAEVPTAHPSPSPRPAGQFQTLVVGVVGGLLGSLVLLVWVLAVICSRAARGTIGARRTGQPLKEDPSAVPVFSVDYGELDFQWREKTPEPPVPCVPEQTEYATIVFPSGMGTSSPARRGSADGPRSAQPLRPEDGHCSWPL

[5] = target: T3, human PD-1 expressed on cells; experiment: cell RBA FACS; competitor PD-L1/Fc

T1 sequence (Q15116 25-167 limits assumed): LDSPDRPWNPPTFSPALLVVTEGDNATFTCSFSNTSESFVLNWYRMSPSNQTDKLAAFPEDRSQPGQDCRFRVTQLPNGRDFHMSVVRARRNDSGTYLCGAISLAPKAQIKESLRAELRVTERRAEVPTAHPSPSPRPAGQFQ

B1: HumAb703-12 (antibody, human IgG1, kappa, L234A L235A, V domains shown)
VH: EVQLQESGPGLVKPSETLSLTCAVSGYSISTGYYWNWIRQPPGKGLEWIGYMSYDGNNNYNPSLKNRITISRDTSKNQFSLKLSSVTAADTAVYYCARDRGTTILGGTMDYWGQGTTVTVSS
VL: DIQMTQSPSSLSASVGDRVTITCKASQSVSNDVAWYQQKPGKAPKLLIYYAFYRYTGVPDRFSGSGYGTDFTLTISSLQPEDFATYYCQQDYSSPWTFGGGTKVEIKR
notes: humanized mAb703
Kd (human PD-1-His protein [1]): 9 nM | koff (human PD-1-His protein [1]): 0.00159 s⁻¹ | kon (human PD-1-His protein [1]): 177000 M⁻¹ s⁻¹

B2: HumAb703-18 (antibody, human IgG1, kappa, L234A L235A, V domains shown)
VH: EVQLQESGPGLVKPSETLSLTCAVSGYSISTGYYWNWIRQPPGKGLEWMGYMSYDGNNNYNPSLKNRITISRDTSKNQFSLKLSSVTAADTAVYYCARDRGTTILGGTMDYWGQGTTVTVSS
VL: DIQMTQSPSSLSASVGDRVTITCKASQSVSNDVAWYQQKPGKSPKLLIYYAFYRYTGVPDRFSGSGYGTDFTLTISSLQPEDFATYFCQQDYSSPWTFGGGTKVEIKR
notes: humanized mAb703
Kd (human PD-1-His protein [1]): 18.9 nM | koff (human PD-1-His protein [1]): 0.00124 s⁻¹ | kon (human PD-1-His protein [1]): 65700 M⁻¹ s⁻¹

B3: HumAb703-13 (antibody, human IgG1, kappa, L234A L235A, V domains shown)
VH: EVQLQESGPGLVKPSETLSLTCAVSGYSISTGYYWNWIRQPPGKGLEWMGYMSYDGNNNYNPSLKNRITISRDTSKNQFSLKLSSVTAADTAVYYCARDRGTTILGGTMDYWGQGTTVTVSS
VL: DIQMTQSPSSLSASVGDRVTITCKASQSVSNDVAWYQQKPGKAPKLLIYYAFYRYTGVPDRFSGSGYGTDFTLTISSLQPEDFATYYCQQDYSSPWTFGGGTKVEIKR
notes: humanized mAb703
Kd (human PD-1-His protein [1]): 10.6 nM | koff (human PD-1-His protein [1]): 0.00154 s⁻¹ | kon (human PD-1-His protein [1]): 145000 M⁻¹ s⁻¹

B4: HumAb703-11 (antibody, human IgG1, kappa, L234A L235A, V domains shown)
VH: EVQLQESGPGLVKPSETLSLTCAVSGYSISTGYYWNWIRQPPGKGLEWIGYMSYDGNNNYNPSLKNRVTISRDTSKNQFSLKLSSVTAADTAVYYCARDRGTTILGGTMDYWGQGTTVTVSS
VL: DIQMTQSPSSLSASVGDRVTITCKASQSVSNDVAWYQQKPGKAPKLLIYYAFYRYTGVPDRFSGSGYGTDFTLTISSLQPEDFATYYCQQDYSSPWTFGGGTKVEIKR
notes: humanized mAb703
Kd (human PD-1-His protein [1]): 9.37 nM | koff (human PD-1-His protein [1]): 0.00176 s⁻¹ | kon (human PD-1-His protein [1]): 187000 M⁻¹ s⁻¹

B5: HumAb703-22 (antibody, human IgG1, kappa, L234A L235A, V domains shown)
VH: EVQLQESGPGLVKPSETLSLTCAVSGYSISTGYYWNWIRQPPGKGLEWIGYMSYDGNNNYNPSLKNRITISRDTSKNQFSLKLSSVTAADTAVYYCARDRGTTILGGTMDYWGQGTTVTVSS
VL: SIVMTQSPSSLSASVGDRVTITCKASQSVSNDVAWYQQKPGKSPKLLIYYAFYRYTGVPDRFTGSGYGTDFTLTISSLQPEDFATYFCQQDYSSPWTFGGGTKVEIKR
notes: humanized mAb703; also called HurnAb703-22
Kd (human PD-1-His protein [1]): 6.94 nM | koff (human PD-1-His protein [1]): 0.00159 s⁻¹ | kon (human PD-1-His protein [1]): 229000 M⁻¹ s⁻¹

B6: mAb703c (antibody, V domains shown)
VH: DVQLQESGPGLVKPSQSLSLTCSVTGYSITTGYYWNWIRQFPGNKLEWMGYMSYDGNNNYNPSLKNRISITRDTSKNQFLLRLNSVTTEDTATYFCARDRGTTILGGTMDYWGQGTSVTVS
VL: SIVMTQTPKFLFVSAGDRVTIACKASQSVSNDVAWYQQKPGQSPKLLIYYAFYRYTGVPDRFTGSGYGTDFTFTISTVQAEDLAVYFCQQDYSSPWTFGGGTKLEIK
Kd (human PD-1-His protein [1]): 2.68 nM | koff (human PD-1-His protein [1]): 0.000966 s⁻¹ | kon (human PD-1-His protein [1]): 359000 M⁻¹ s⁻¹

B7: FIT107-1-7b-2 (bispecific antibody, human IgG1, kappa, L234A L235A)
chain 1: not shown
chain 2: EVQLVQSGAEVKKPGATVKLSCTASGFNIKDDYMHWVKQRPEQGLDWIGWIVPRNANTVYASKFQGKATITADTSTNTAYLELSSLRSEDTAVYYCTVYGDYWGQGTTVTVSSASTKGPSVFPLAPSSKSTSGGTAALGCLVKDYFPEPVTVSWNSGALTSGVHTFPAVLQSSGLYSLSSVVTVPSSSLGTQTYICNVNHKPSNTKVDKKVEPKSC
chain 3: not shown
notes: FIT-Ig hexamer; outer anti-LAG-3 (HumAb747V-72 with G55A), inner anti-PD-1 (HumAb713-7)
Kd [2]: 1.41 nM | koff [2]: 0.000246 s⁻¹ | kon [2]: 174000 M⁻¹ s⁻¹ | Kd (human PD-1-His protein [3]): 7.9 nM | koff (human PD-1-His protein [3]): 0.000827 s⁻¹ | kon (human PD-1-His protein [3]): 105000 M⁻¹ s⁻¹

B8: HumAb713-6 (antibody, human IgG1, kappa, L234A L235A, V domains shown)
VH: EVQLVESGGGLVQPGGSLRLSCAASGFTFSDYGMHWVRQAPGKGLEWVSYISSGSYTIYYADTVKGRFTISRDNAKNSLYLQMNSLRDEDTAVYYCAKRGGSSHVNVMDYWGQGTTVTVSS
VL: DIQMTQSPSSLSASVGDRVTITCKASDHINNWLAWYQQKPGKAPKLLIYGATSLETGVPSRFSGSGSGTDYTFTISSLQPEDIATYYCQQYWSPPYTFGGGTKVEIKR
notes: humanized mAb713; also called HurnAb713-6
IC50 [4]: 1.46 nM | IC50 [5]: 1.04 nM

B9: HumAb713-2 (antibody, human IgG1, kappa, L234A L235A, V domains shown)
VH: EVQLVESGGGLVQPGGSLRLSCAASGFTFSDYGMHWVRQAPGKGLEWVSYISSGSYTIYYADTVKGRFTISRDNAKNSLYLQMNSLRDEDTAVYYCAKRGGSSHVNVMDYWGQGTTVTVSS
VL: DIQMTQSPSSLSASVGDRVTITCKASDHINNWLAWYQQKPGKAPKLLIYGATSLETGVPSRFSGSGSGTDFTFTISSLQPEDIATYYCQQYWSPPYTFGGGTKVEIKR
notes: humanized mAb713
IC50 [4]: 3.13 nM | IC50 [5]: 1.71 nM

B10: HumAb713-4 (antibody, human IgG1, kappa, L234A L235A, V domains shown)
VH: EVQLVESGGGLVQPGGSLRLSCAASGFTSSDYGMHWVRQAPGKGLEWVAYISSGSYTIYYADTVKGRFTISRDNAKNSLYLQMNSLRDEDTAVYYCAKRGGSSHVNVMDYWGQGTTVTVSS
VL: DIQMTQSPSSLSASVGDRVTITCKASDHINNWLAWYQQKPGKAPKLLIYGATSLETGVPSRFSGSGSGTDFTFTISSLQPEDIATYYCQQYWSPPYTFGGGTKVEIKR
notes: humanized mAb713
IC50 [4]: 2.24 nM | IC50 [5]: 1.06 nM

B11: HumAb713-5 (antibody, human IgG1, kappa, L234A L235A, V domains shown)
VH: EVQLVESGGGLVQPGGSLRLSCAASGFTFSDYGMHWVRQAPGKGLEWVSYISSGSYTIYYADTVKGRFTISRDNAKNSLYLQMNSLRDEDTAVYYCARRGGSSHVNVMDYWGQGTTVTVSS
VL: DIQMTQSPSSLSASVGDRVTITCKASDHINNWLAWYQQKPGKAPKLLIYGATSLETGVPSRFSGSGSGTDYTFTISSLQPEDIATYYCQQYWSPPYTFGGGTKVEIKR
notes: humanized mAb713
IC50 [4]: 2.95 nM | IC50 [5]: 0.91 nM

B12: FIT107-1-7a-1 (bispecific antibody, human IgG1, kappa, L234A L235A)
chain 1: not shown
chain 2: EVQLVESGGGLVQPGGSLRLSCAASGFTSSDYGMHWVRQAPGKGLEWVSYISSGSYTIYYADTVKGRFTISRDNAKNSLYLQMNSLRDEDTAVYYCAKRGGSSHVNVMDYWGQGTTVTVSSASTKGPSVFPLAPSSKSTSGGTAALGCLVKDYFPEPVTVSWNSGALTSGVHTFPAVLQSSGLYSLSSVVTVPSSSLGTQTYICNVNHKPSNTKVDKKVEPKSC
chain 3: DIQMTQSPSSLSASVGDRVTITCRASQEISGYLSWLQQKPGGAIKRLIYAASALDSGVPSRFSGSRSGSDYTLTISSLQPEDFADYYCLQYASYPLTFGQGTKLELKRTVAAPSVFIFPPSDEQLKSGTASVVCLLNNFYPREAKVQWKVDNALQSGNSQESVTEQDSKDSTYSLSSTLTLSKADYEKHKVYACEVTHQGLSSPVTKSFNRGEC
notes: FIT-Ig hexamer; outer anti-PD-1 (HumAb713-7), inner anti-LAG-3 (HumAb747V-67 with G55A)
Kd [2]: 0.732 nM | koff [2]: 0.000124 s⁻¹ | kon [2]: 169000 M⁻¹ s⁻¹ | Kd (human PD-1-His protein [3]): 3.04 nM | koff (human PD-1-His protein [3]): 0.000538 s⁻¹ | kon (human PD-1-His protein [3]): 177000 M⁻¹ s⁻¹

B13: FIT107-1-7a-3 (bispecific antibody, human IgG1, kappa, L234A L235A)
chain 1: not shown
chain 2: EVQLVESGGGLVQPGGSLRLSCAASGFTSSDYGMHWVRQAPGKGLEWVSYISSGSYTIYYADTVKGRFTISRDNAKNSLYLQMNSLRDEDTAVYYCAKRGGSSHVNVMDYWGQGTTVTVSSASTKGPSVFPLAPSSKSTSGGTAALGCLVKDYFPEPVTVSWNSGALTSGVHTFPAVLQSSGLYSLSSVVTVPSSSLGTQTYICNVNHKPSNTKVDKKVEPKSC
chain 3: DIQMTQSPSSLSASVGDRVTITCRASQEISGYLSWLQQKPGGAIKRLIYAASTLDSGVPSRFSGSRSGSDYTLTISSLQPEDFADYYCLQYASYPLTFGQGTKLELKRTVAAPSVFIFPPSDEQLKSGTASVVCLLNNFYPREAKVQWKVDNALQSGNSQESVTEQDSKDSTYSLSSTLTLSKADYEKHKVYACEVTHQGLSSPVTKSFNRGEC
notes: FIT-Ig hexamer
Kd [2]: 1.47 nM | koff [2]: 0.000134 s⁻¹ | kon [2]: 91000 M⁻¹ s⁻¹ | Kd (human PD-1-His protein [3]): 3.01 nM | koff (human PD-1-His protein [3]): 0.000628 s⁻¹ | kon (human PD-1-His protein [3]): 208000 M⁻¹ s⁻¹

B14: FIT107-1-7a-2 (bispecific antibody, human IgG1, kappa, L234A L235A)
chain 1: not shown
chain 2: EVQLVESGGGLVQPGGSLRLSCAASGFTSSDYGMHWVRQAPGKGLEWVSYISSGSYTIYYADTVKGRFTISRDNAKNSLYLQMNSLRDEDTAVYYCAKRGGSSHVNVMDYWGQGTTVTVSSASTKGPSVFPLAPSSKSTSGGTAALGCLVKDYFPEPVTVSWNSGALTSGVHTFPAVLQSSGLYSLSSVVTVPSSSLGTQTYICNVNHKPSNTKVDKKVEPKSC
chain 3: DIQMTQSPSSLSASVGDRVTITCRASQEISGYLSWLQQKPGGAIKRLIYAASALDLGVPSRFSGSRSGSDYTLTISSLQPEDFADYYCLQYASYPLTFGQGTKLELKRTVAAPSVFIFPPSDEQLKSGTASVVCLLNNFYPREAKVQWKVDNALQSGNSQESVTEQDSKDSTYSLSSTLTLSKADYEKHKVYACEVTHQGLSSPVTKSFNRGEC
notes: FIT-Ig hexamer; outer anti-PD-1 (HumAb713-7), inner anti-LAG-3 (HumAb747V-72 with G55A)
Kd [2]: 1.22 nM | koff [2]: 0.000128 s⁻¹ | kon [2]: 105000 M⁻¹ s⁻¹ | Kd (human PD-1-His protein [3]): 3.17 nM | koff (human PD-1-His protein [3]): 0.000526 s⁻¹ | kon (human PD-1-His protein [3]): 166000 M⁻¹ s⁻¹
